According to US11091795B2, “Compositions and methods for diagnosing and treating arrhythmias” (Arizona Board of Regents on Behalf of the University of …, priority 2016, dated 2021):
Entries after “also recorded” stand apart in the source; their conditions may differ. One block for each molecule: values may come before it.

Legend:
[1] = tested on: patients with sickle cell disease; details: cited from earlier work
[2] = tested on: PBMCs isolated and cultured from patients with sickle cell disease; test: Heme administration in vitro to PBMCs from sickle cell disease patients; format: cell-based, human; details: heme 100 uM, 16 h
From the text: IL-18, associated with prolonged QTc and mortality, is induced by heme in PBMCs.

sickle mice = details: cited from earlier work
[3] = tested on: adults with moderate to severe sickle cell disease; details: cited from earlier work
IL-18 = biological target: T1, IL-18 (Mus musculus, UniProt P70380); test: Chronic (sustained) inhibition of IL-18 with IL-18bp in sickle mice; format: in vivo; details: for myocardial fibrosis (Picrosirius Red staining): chronic/sustained (3 weeks) IL-18 inhibition; for diastolic function (change in E/E′, LV filling pressures, on echocardiography): chronic/sustained IL-18 inhibition
T1 construct: endogenous in cells; host or cells: sickle mice, in vivo (circulating and cardiac IL-18)
T1 sequence (P70380 36-192): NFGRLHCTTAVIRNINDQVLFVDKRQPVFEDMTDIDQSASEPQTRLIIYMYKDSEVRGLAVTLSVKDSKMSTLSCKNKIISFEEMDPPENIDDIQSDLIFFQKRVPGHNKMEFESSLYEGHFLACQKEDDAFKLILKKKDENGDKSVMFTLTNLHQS
Procedure: Based on the association of IL-18 with myocardial fibrosis and diastolic dysfunction, the functional role of IL-18 in the development of myocardial fibrosis and diastolic dysfunction was tested. […] The mechanisms of how IL-18 mediates sickle cardiomyopathy with prolonged repolarization, diastolic dysfunction, and myocardial fibrosis are unclear. Given the absence of significant IL-18 effect on WT mice and the vulnerability of sickle mice, microarray transcript profiling in murine LV tissue between the two mice was performed. A total of 1611 probes (812 annotated genes) were differentially expressed between sickle and WT mice (P≤0.05). […] Additionally, RT-PCR and western blot reveal sickle mice have reduced myocardial KCND2 and KCND3 gene expression levels (FIG. 6B) consistent with increased APD.
It is contemplated that IL-18/IL-18R signaling implicates Nox4 function in sickle heart arrhythmic response. In an acute setting, it is contemplated that IL-18-mediated Nox4 activation downregulates KCND2/KCND3 expression and associated Ito activity which prolongs APD promoting VT; in a chronic setting, it is contemplated that IL-18 induces Nox4-mediated myocardial apoptosis and subsequent fibrosis resulting in pathologic electrophysiological remodeling enhancing VT vulnerability. Briefly, myocardial action potentials reflect the sequential activation and inactivation of inward depolarizing (Na^+, Ca^2+) and outward repolarizing (K^+) current-carrying ion channels. The K^+ channel function determines membrane potential and refractoriness of the myocardium. […] These observations are coupled with increased nitrotyrosine (ROS marker) levels and p38 MAPK activation (within 5 mins and sustained for 45 mins) in vivo. Reduced Ito is also associated with IL-18-induced prolonged APD, promoting early after depolarizations (EADs) and reentry formation in sickle cell hearts. Several reports have shown direct Nox4 interactions with IL-18R as well as Nox4-medaited p38 MAPK activation in cardiomyocytes resulting in reduced KCND2/KCND3 mRNA expression (and Ito current) (Li et al., 2012. J Mol Cell Cardiol 52:971-977; Zhou et al., 2008. J Mol Cell Cardiol 45:832-838; Zhou et al., 2006. Circ Res 98:1040-1047). Single cell voltage clamp and organ level optical mapping is used to evaluate the downstream effects of IL-18 and Nox4. […] Based on these acute and chronic data, a mutant mouse with cardiac-specific Nox4 genetic depletion in a sickle cell mouse background is generated to functionally validate the role of cardiac Nox4 in sickle cell cardiomyopathy and inducible VT.

[4] = tested on: transient outward K+ current (Ito) in sickle mouse cardiomyocytes; test: Voltage clamp (patch clamp) of Ito in isolated cardiomyocytes; format: cell-based
Procedure: IL-18 reduces Ito in isolated sickle cardiomyocytes. Voltage clamp experiments were performed on fresh cardiomyocytes isolated from a sickle mouse exposed to IL-18 (FIG. 10).
Patch clamp protocol of Ito: Cardiomyocytes were isolated by standard enzymatic techniques and patch-clamp recordings of Ito were performed with an Axopatch-200B amplifier (Molecular Devices, Sunnyvale, Calif.) as described previously (El Gebeily et al., Pharmacol. 2010 Mar. 10; 629(1-3):96-103). Bath solution was Tyrode solution (mmol/L): 140 NaCl; 5.4 KCl; 1.8 CaCl2; 1 MgCl2; 0.33, Na2HPO4; 10 HEPES, 5.5 glucose (pH adjusted to 7.4 with NaOH). Pipette solution is (mmol/L): 110 K^+-aspartate, 20 KCl, 8 NaCl, 1 MgCl2, 1 CaCk2, 10 BAPTA, 4 K2ATP and 10 HEPES (pH adjusted to 7.2 KOH). Whole-cell voltage-clamp recordings were made using the ruptured patch-clamp technique with a patch-clamp amplifier, Axopatch 200 B (Axon Instruments, Foster City, USA). Pipettes resistances was ˜2 MΩ when filled with pipette solution. Series resistance in the whole-cell mode was compensated. Voltage-clamp currents were low-pass filtered at 1 kHz and digitized at 2 kHz. The total K+ current (Ipeak) was constructed from the current elicited by a series of 5 s test potentials at 10 mV increment from −110 mV to +50 mV from a holding potential of −80 mV at a frequency rate of 0.1 Hz. […] The data were recorded using pClamp 10.6 and analyzed with Clampfit (Axon Instruments, Foster City, USA). Current amplitudes were normalized to the cell capacitance and expressed as pA/pF. All experiments were carried out at room temperature (20-22° C.).

sickle mice hearts = test: Optical mapping of ex vivo perfused hearts with exogenous IL-18 in the perfusate; set-up: species or system mouse
From the text: (§1) Optical mapping: WT and sickle male mice (12-16 weeks) hearts underwent optical mapping. The optical apparatus has been previously described (Rutledge et al., 2014; supra). The values are presented as the mean±standard deviation. Student t test was used and a P value of <0.05 was considered statistically significant. Sample […] and activation maps with BCL pacing were made for both the control and sickle cell hearts.
(§2) To establish cause and effect, acute effects of IL-18 on the myocardial electrical phenotype were evaluated further in sickle mice. […] Longer perfusion of IL-18 led to the development of multiple PVCs and short-lived VTs (n=4/4 hearts, FIG. 5E).

[5] = tested on: cardiac Nox4, p38, nitrotyrosine in sickle mice; test: Acute IL-18 administration in vivo, cardiac Nox4/p38/nitrotyrosine; set-up: species or system mouse; details: within 5 minutes of IL-18 administration to sickle mice (5 ug/kg)
From the text: Nitrotyrosine levels are considered a stable byproduct of the presence of peroxynitrite (ROS).

WT mice hearts = test: Optical mapping of ex vivo perfused hearts with exogenous IL-18 in the perfusate (WT); set-up: species or system mouse; details: IL-18 via the perfusate (20 ng/min)
From the text: as §1, §2

[6] = short-term administration, tumor necrosis factor-α-induced vaso-occlusion model
[7] = sustained (3 weeks) IL-18 inhibition
[8] = sickle mouse cardiomyocytes in the presence of IL-18
[9] = IL-18 via the perfusate (20 ng/min), sickle mice hearts

Molecule: Nc1ncn([C@H]2C[C@H](O)[C@@H](CO)O2)c(=O)n1 [decitabine, 5-Aza-2′-deoxycytidine]
sickle cell patients responding with an increase in HbF levels ([1]; including patients who had failed to respond to hydroxyurea): 100%
dose-limiting toxicity ([1]; sickle cell patients): reversible neutropenia
increase in total hemoglobin levels ([1]; sickle cell patients): 2 g/dL
reticulocyte counts ([1]; sickle cell patients): decreased

Molecule: C=CC1=C(C)c2cc3[n-]c(cc4[n-]c(cc5nc(cc1n2)C(C)=C5C=C)c(C)c4CCC(=O)O)c(CCC(=O)O)c3C.[Fe+2] [heme]
IL-18 protein expression [2]: induced IL-18 protein expression
IL-18 protein expression ([2]; listed as Heme): induces IL-18 protein expression

Molecule: NC(=O)NO [hydroxyurea]
hemolytic anemia at baseline (sickle mice; long-term administration in sickle mice): does not improve
animal survival (sickle mice; [6]): prolonged animal survival
leukocyte recruitment to the microvasculature (sickle mice; [6]): significantly altered
frequency of painful crises, episodes of acute chest syndrome, transfusion requirements and hospitalizations ([3]; large multicenter study): marked decrease
survival ([3]; patients): improved survival

myocardial fibrosis (Picrosirius Red staining) (IL-18): reduced
myocardial fibrosis (Picrosirius Red staining) (IL-18; listed as IL-18 bp): reduced myocardial fibrosis
diastolic function (change in E/E′, LV filling pressures, on echocardiography) (IL-18): improved cardiac function
diastolic function (change in E/E′, LV filling pressures, on echocardiography) (IL-18; listed as IL-18 bp): improved
myocardial apoptosis (IL-18; [7]): reduced myocardial apoptosis
B1: IL-18bp: naturally occurring protein that binds to IL-18 and prevents it from activating its receptor (protein, UniProt Q9Z0M9 29-193, looked up)
Interleukin-18-binding protein: TSAPQTTATVLTGSSKDPCSSWSPAVPTKQYPALDVIWPEKEVPLNGTLTLSCTACSRFPYFSILYWLGNGSFIEHLPGRLKEGHTSREHRNTSTWLHRALVLEELSPTLRSTNFSCLFVDPGQVAQYHIILAQLWDGLKTAPSPSQETLSSHSPVSRSAGPGVA
cardiac IL-18R (β subunit) and Nox4 expression (IL-18; [7]): reduced cardiac Nox4 and IL-18R expression levels; also recorded: reduced cardiac IL-18R (β subunit) and Nox4 expression

B2: IL-18: exogenous IL-18 cytokine administered to mouse hearts, mice or cardiomyocytes (protein, UniProt P70380 36-192, looked up)
Interleukin-18: NFGRLHCTTAVIRNINDQVLFVDKRQPVFEDMTDIDQSASEPQTRLIIYMYKDSEVRGLAVTLSVKDSKMSTLSCKNKIISFEEMDPPENIDDIQSDLIFFQKRVPGHNKMEFESSLYEGHFLACQKEDDAFKLILKKKDENGDKSVMFTLTNLHQS
reduction of Ito ([4]; in 10 minutes, fresh cardiomyocytes isolated from a sickle mouse): 47 % reduction
peak Ito ([4]; sickle group, IL-18 25 ng/mL, at 50 mV): 3.1±0.8 pA/pF
Ito (in words) [4, 8]: reduce Ito current; also recorded: further reduced
fast inactivating Ito [4, 8]: mostly abolished
action potential duration (APD) (sickle mice hearts; [9]): prolonged APD; also recorded: APD prolongation
conduction velocity (CV), transverse and longitudinal (sickle mice hearts; [9]): reduced trends in CV; also recorded: Trends in slowing
rise time of action potentials (sickle mice hearts; [9]): Increased rise time
electrical effects after 20 minutes of IL-18 administration (sickle mice hearts; after 20 minutes of perfusion): APD prolongation, atrioventricular block, and a slowed heart rate
development of multiple PVCs and short-lived VTs (sickle mice hearts; longer perfusion of IL-18, sickle hearts): 4/4
cardiac Nox4, p38 activation and nitrotyrosine levels [5]: increases Nox4 levels; also recorded: acutely induces; also recorded: activated
changes in APD, CV and rise time (WT mice hearts): no significant changes
